According to the Immune Epitope Database (IEDB):
Each block holds one sequence with its values, some of them ahead of it.

How the values were obtained:
HLA-A*29:02 = test: IEDB peptide-MHC binding, purified MHC/competitive/radioactivity; filed as Kd, often an IC50 or EC50 that approximates it; ≥ and ≤ were set here for values at or beyond the usual limits of such assays
HLA-A*23:01 = test: as above
HLA-A*26:01 = test: as above
HLA-A*24:02 = test: as above
HLA-A*30:02 = test: as above
HLA-A*01:01 = test: as above
HLA-A*02:01 [1] = test: IEDB peptide-MHC binding, purified MHC/competitive/fluorescence; ≥ and ≤ were set here for values at or beyond the usual limits of such assays
HLA-B*15:01 = test: IEDB peptide-MHC binding, purified MHC/direct/fluorescence; filed as Kd, often an IC50 or EC50 that approximates it; ≥ and ≤ were set here for values at or beyond the usual limits of such assays
HLA-A*69:01 = test: as above
HLA-A*02:01 [2] = test: as above
HLA-A*32:01 = test: IEDB peptide-MHC binding, purified MHC/competitive/radioactivity; filed as Kd, often an IC50 or EC50 that approximates it; ≥ and ≤ were set here for values at or beyond the usual limits of such assays
HLA-B*08:01 = test: as above
HLA-B*58:01 = test: IEDB peptide-MHC binding, purified MHC/direct/fluorescence; filed as Kd, often an IC50 or EC50 that approximates it; ≥ and ≤ were set here for values at or beyond the usual limits of such assays; conditions: source organism: Pasteurella multocida
HLA-A*03:01 = test: as above; conditions: source organism: Pasteurella multocida
HLA-B*07:02 = test: as above; conditions: source organism: Haemophilus influenzae
[3] = source organism: SARS coronavirus Tor2
[4] = source organism: Rickettsia conorii
[5] = source organism: Mammarenavirus guanaritoense
[6] = source organism: Vaccinia virus WR
[7] = source organism: Sudan ebolavirus
[8] = source organism: Lassa virus Josiah
[9] = source organism: Vaccinia virus Copenhagen
[10] = source organism: Zaire ebolavirus
[11] = source organism: Pasteurella multocida
[12] = source organism: Lymphocytic choriomeningitis virus (strain Armstrong)
[13] = source organism: Vibrio vulnificus YJ016
[14] = source organism: Haemophilus influenzae
[15] = source organism: Mammarenavirus brazilense
[16] = source organism: Mammarenavirus whitewaterense

Sequence: VYMPASWVM
Kd (HLA-A*29:02; [3]): 14700 nM
Kd (HLA-A*23:01; [3]): 5420 nM
Kd (HLA-A*26:01; [3]): ≥ 77900 nM
Kd (HLA-A*24:02; [3]): 12600 nM
Kd (HLA-A*30:02; [3]): ≥ 20900 nM
Kd (HLA-A*01:01; [3]): ≥ 78100 nM

Sequence: VNPGTYVYF
IC50 (HLA-A*02:01 [1]; source organism: Variola virus): ≥ 186000 nM

Sequence: YFSDVSAPV
Kd (HLA-B*15:01; [4]): 704 nM
Kd (HLA-A*69:01; [4]): 41 nM
Kd (HLA-A*02:01 [2]; [4]): 27.9 nM

Sequence: SFKVGHHTNF
Kd (HLA-A*29:02; [5]): 814 nM
Kd (HLA-A*23:01; [5]): 1320 nM
Kd (HLA-A*24:02; [5]): 11000 nM

Sequence: TTTIKPVSY
Kd (HLA-A*29:02; [3]): 47.3 nM
Kd (HLA-A*23:01; [3]): ≥ 77800 nM
Kd (HLA-A*26:01; [3]): 360 nM
Kd (HLA-A*24:02; [3]): ≥ 77600 nM
Kd (HLA-A*30:02; [3]): 142 nM
Kd (HLA-A*01:01; [3]): 286 nM

Sequence: VAEMDGIQY
Kd (HLA-A*29:02; [3]): 58.3 nM
Kd (HLA-A*23:01; [3]): ≥ 77800 nM
Kd (HLA-A*26:01; [3]): 1270 nM
Kd (HLA-A*24:02; [3]): ≥ 77600 nM
Kd (HLA-A*30:02; [3]): 19.5 nM
Kd (HLA-A*01:01; [3]): 30.8 nM

Sequence: AIIAIVFVF
Kd (HLA-A*32:01; [6]): 14100 nM

Sequence: SVYKHRLIV
Kd (HLA-B*08:01; [6]): 108 nM

Sequence: FLLRRWGGT
IC50 (HLA-A*02:01 [1]; [7]): 2020 nM

Sequence: KGEDGCWYGM
Kd (HLA-A*32:01; source organism: Dengue virus 1 Singapore/S275/1990): 1880 nM

Sequence: STFNRFTIV
Kd (HLA-B*08:01; [6]): 1730 nM

Sequence: IFWRNTNPI
Kd (HLA-A*29:02; [3]): ≥ 35200 nM
Kd (HLA-A*23:01; [3]): 9150 nM
Kd (HLA-A*26:01; [3]): ≥ 77900 nM
Kd (HLA-A*24:02; [3]): ≥ 31500 nM
Kd (HLA-A*30:02; [3]): ≥ 78900 nM
Kd (HLA-A*01:01; [3]): ≥ 78100 nM

Sequence: TLVGVVVST
IC50 (HLA-A*02:01 [1]; source organism: Vaccinia virus): 55400 nM

Sequence: YCNYSKYWYL
Kd (HLA-A*29:02; [8]): 10800 nM
Kd (HLA-A*23:01; [8]): 1150 nM
Kd (HLA-A*26:01; [8]): ≥ 69700 nM
Kd (HLA-A*24:02; [8]): 4440 nM
Kd (HLA-A*30:02; [8]): ≥ 22700 nM
Kd (HLA-A*01:01; [8]): 9730 nM

Sequence: SIKMKLVSI
Kd (HLA-B*08:01; [9]): 16.4 nM

Sequence: EFSSNVANY
Kd (HLA-A*29:02; [3]): 703 nM
Kd (HLA-A*23:01; [3]): ≥ 77800 nM
Kd (HLA-A*26:01; [3]): 2900 nM
Kd (HLA-A*24:02; [3]): ≥ 32200 nM
Kd (HLA-A*30:02; [3]): 828 nM
Kd (HLA-A*01:01; [3]): 11200 nM

Sequence: ATIQRFSSL
Kd (HLA-B*08:01; [6]): 3.34 nM

Sequence: LAKLTEAIT
IC50 (HLA-A*02:01 [1]; [10]): 68400 nM

Sequence: RGVNFAEGV
IC50 (HLA-A*02:01 [1]; [7]): 32900 nM

Sequence: SNAKCIEYV
IC50 (HLA-A*02:01 [1]; [9]): 53600 nM

Sequence: GYRFFNKTL
Kd (HLA-A*29:02; [5]): 3590 nM
Kd (HLA-A*23:01; [5]): 210 nM
Kd (HLA-A*24:02; [5]): 1190 nM

Sequence: CIVNKFMSF
Kd (HLA-B*08:01; [6]): 60.4 nM

Sequence: SNSNRLMSI
Kd (HLA-B*08:01; [6]): 10.1 nM

Sequence: KTIFLSEPY
Kd (HLA-A*32:01; [6]): 2.9 nM

Sequence: ASKVFFGPI
Kd (HLA-B*08:01; [6]): 12800 nM

Kd (HLA-B*15:01; [11]): 748 nM
Kd (HLA-A*69:01; [11]): 572 nM
Kd (HLA-B*58:01): 572 nM
Kd (HLA-A*03:01): 402 nM
Sequence: ILYVSCNPA

Sequence: CWLVTNGSYL
Kd (HLA-A*29:02; [12]): 2890 nM
Kd (HLA-A*23:01; [12]): 138 nM
Kd (HLA-A*24:02; [12]): 841 nM

Sequence: VYSDVETPHL
Kd (HLA-A*29:02; [3]): 589 nM
Kd (HLA-A*23:01; [3]): 163 nM
Kd (HLA-A*26:01; [3]): ≥ 69700 nM
Kd (HLA-A*24:02; [3]): 245 nM
Kd (HLA-A*30:02; [3]): 16100 nM
Kd (HLA-A*01:01; [3]): 303 nM

Sequence: SLGGHTVWQ
Kd (HLA-A*69:01; [13]): ≥ 20000 nM
Kd (HLA-A*02:01 [2]; [13]): 8000 nM

Sequence: AMVRMYIFF
Kd (HLA-A*29:02; [3]): 452 nM
Kd (HLA-A*23:01; [3]): 214 nM
Kd (HLA-A*26:01; [3]): 7440 nM
Kd (HLA-A*24:02; [3]): 4460 nM
Kd (HLA-A*30:02; [3]): ≥ 71100 nM
Kd (HLA-A*01:01; [3]): 18700 nM

Sequence: KSTDFLDPA
IC50 (HLA-A*02:01 [1]; [10]): 5050 nM

Sequence: TMFKIVYSL
Kd (HLA-A*32:01; [6]): 0.915 nM

Sequence: LMINNMHSI
Kd (HLA-A*32:01; [6]): 13800 nM

Sequence: TGPCAGDFA
IC50 (HLA-A*02:01 [1]; [10]): ≥ 112000 nM

Kd (HLA-B*15:01; [14]): 18500 nM
Kd (HLA-B*07:02): 12700 nM
Kd (HLA-A*69:01; [14]): 238 nM
Kd (HLA-A*02:01 [2]; [14]): 316 nM
Sequence: AILGVLATL

Sequence: FTNAGIVAY
Kd (HLA-A*32:01; [6]): 149 nM

Sequence: NCSSISIKL
IC50 (HLA-A*02:01 [1]; [9]): ≥ 437000 nM

Sequence: TERSASGGVY
Kd (HLA-A*29:02; [15]): ≥ 55500 nM
Kd (HLA-A*23:01; [15]): ≥ 44900 nM
Kd (HLA-A*26:01; [15]): ≥ 54600 nM
Kd (HLA-A*24:02; [15]): ≥ 70300 nM
Kd (HLA-A*30:02; [15]): 1010 nM
Kd (HLA-A*01:01; [15]): 1710 nM

Sequence: SYKIGHHVEL
Kd (HLA-A*29:02; [16]): ≥ 56900 nM
Kd (HLA-A*23:01; [16]): 15900 nM
Kd (HLA-A*24:02; [16]): 12900 nM

Sequence: IMLVYCFLGY
Kd (HLA-A*29:02; [3]): 3.05 nM
Kd (HLA-A*23:01; [3]): ≥ 70000 nM
Kd (HLA-A*26:01; [3]): ≥ 42700 nM
Kd (HLA-A*24:02; [3]): ≥ 70300 nM
Kd (HLA-A*30:02; [3]): 211 nM
Kd (HLA-A*01:01; [3]): ≥ 31500 nM
